The series can be described thus: yeast display, Sf9 membrane polyspecificity reagent, FACS + sequencing; frameworks hold sequencing errors. The method, boiled down:
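Using colony PCR, genes from sorted yeast display clones were amplified, then sequenced on MiSeq at 2 × 250 and filtered by CDR length. The clones had been stained with 10% biotinylated, detergent-solubilized Sf9 membrane reagent for 1 hour at 4 °C and sorted by FACS into low and high (top ~1%) gates on anti-HA and streptavidin fluorescence. Polyreactivity labels come from the gate of origin.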
For “QVQIVESGGVLVQAGGSLRLSCAASGITLRVYVMGWYRQAPGKERELVAAITSRGDRTYYADSVKGRSTISRDNAKNTVYLQMNSLKPEDTAVYDCAARYYSYPPGLSQTRLTYYYWGQGTQVTVSS”, the “polyreactivity (PSR sort gate)” value is recorded as “high polyreactivity”.
On to “QVQIVESGVGLVQAGGSLRLSCAASGRIVSSKVMGLYRQAAGKERELVAAITSGGSTYYADSVKGRFTISRDNAKNTVYLQMNSLKPEDTAVYYCAASYWVLRYRYDYWGQGTQVTVSS”, for which the “polyreactivity (PSR sort gate)” value is reported as “high polyreactivity”.
To “QVQIVESRGGLVQAGGSLRLSCAASGFIIYKYALGWYRQAPRKERELVAAISSSGGNTYYADSVKGRFTNSRDNAKNTVFLQMMSLKPEDTAVYYCAADYYVSKSRYYSYGYWGQGTQVTVSS” belongs “high polyreactivity”; to “QVQIVESRGGLVQAGVSLRLSCAASGRIFAKNVMGWYRQAPGKDRELVAAISRSGGSTYYADSVKGRFTISRDNAKNTVYLQMNSLKPEDTAVYYCAATPAYGRRWSRYGYWGQGTQVNVSS”, “high polyreactivity”.
The same measure for “QVQIVESVGGLVQAGGSLRLSCAASGSTVERYAMGWYRKAPGKERELVARITWSGGSTYYADSVKGRFTISLDNAKNTVYVQMNSLKPEDTAVYYCNRDTRYPGYWRVFAKNNYWGQGTQVTVSS”: “high polyreactivity”; for “QVQLAESGGGLVQAGGSLRLSCAASGSTSAKNVMGWYRQPPGTERELVAAISRSGGRTYYADSVKGRFTISRDNAKNTVYLQMNSLKPVDTAVYYCYTRYVKGFYWGQGTLVTVSS”: “high polyreactivity”; for “QVQLDESGGGLVQAGGSLRLSCADSGRIFDRNALGWYRQAPGKESELVAAISSRGTSTYYADSVKGRFTISRDNAKNTVYLQMNSLKPEDTAVYYCAARPRYASDEFGYWGQGTQVTVSS”: “low polyreactivity”.
The same measure for “QVQLEDSGGGLVQAGGSLPLSCAASGLTFYVNARGWNRQAPGKERELVAGIDSGGSTYYAASVKGRFTISRDNAKNTVYLQMNSLKPEDTAVYYCAADEGYVWPYYGWGFGKYDYWGEGTQVTVSS”: “low polyreactivity”; for “QVQLEDSGGGLVQAGGSLRLSCAASGFIFGLNAMGWNRQAPGKERELVAAIRSASSTNYADSVKGRFTISRDNAKNTVYLQMNSLKPEDTAVYYCAAEYVTYQHGFWGYDYWGQGTQVTVSS”: “low polyreactivity”; for “QVQLEDSGGGLVQAGGSLRLSCAASGLNLYRYAMGVYRQEPGKEREFVASISWSGGSTYYADSVKGRFTISRDNAKNTVYLQMNSLKPEDTAVYYCATDSDTSQLGYDYWGQGTQVTVAS”: “low polyreactivity”.
With “QVQLEDSGGGLVQAGGSLRLSCAASGRTFHRNAMGWYRQAPGKERELVAAITGSGGSTYYADSVKGRFTISRDNAKNTVYLQMNSLKPEDTAVYYCATYSYPERTGGQRTHYYWGQGTQVTVSS”, the “polyreactivity (PSR sort gate)” value is “high polyreactivity”.
With “QVQLEDSGGGLVQAGGSLRLSCAASGSTFNQYAMGWYRQATGKERELVAAITTSGARTYYADSVKGRFTISRDNAKNTVYLQMNSLKPEDTAVYYCNAGYFSYRYRYGYDYWGLGTQVTVSS”, the “polyreactivity (PSR sort gate)” value was “high polyreactivity”.
Take “QVQLEDSGGGLVQAGGSLRLSCAASGSTFRYYTMGWYRQAPGKEREFVASIRTSGGSTYADSVKGRFTISRDNAKNTVYLQMNSLKPEDTAVYYCAARGGYRYTRYDYWGQGTQVTVSS”: the “polyreactivity (PSR sort gate)” value was “high polyreactivity”.
To “QVQLEDSGGGLVQAGGSLRLSCAASGSTWVYAMGWYRQAPGTERELVASITVSGGSTYYADSVKGRFTISRDNAKNTVYLQMNSLKPEDTAVYYCAAYDSYRKFKYWRQGTQVTVSS” belongs “high polyreactivity”.
Consider “QVQLEDSGGGLVQAGGTLRLSCAASGIIFAYNYMGWNRHATRKERELVATISSAGNTNYADSVKGRFTISRDNAKNTVYLQMNSLKPEETAVYYCAAEFFIVVTDEYDYWGQGTQVTVSS”, for which the “polyreactivity (PSR sort gate)” value is on record as “low polyreactivity”.
To “QVQLEDSGRGLFQAGGSLRLSCAASGSNFAHYAMGWYIQAQGKERELVARFSWSGGSTYYADSVKGRFTISRDNAKNTVYLQMNSLKPEDTAVYYCAADHLYWGLEYEPWGQGTQVTVSS” belongs “low polyreactivity”; to “QVQLEESAGGLVQAGGSLRLSCAASGSIFFWNDLGWYRQAPGKERELVAAISWSGGSTSYADSVKGRFTISRDNAKNTVYLQMNSLKPEDTAVYYCAADFYYRTLYGYIGMDYWGQGTQVTVSS”, “low polyreactivity”; to “QVQLEESAGGLVQAGGSLSLICAASGTIVSYAMGWYRQAPGKQRELVAAISRSGGSTYYADSVKGRFTIARDNEKNTVYLQMNSLKPEDTAVYYCAARWRYLTLYAGFNYWGQGTQVTVSS”, “high polyreactivity”.
Regarding “QVQLEESGAGLVQAGGSLRLSCAPSGIIYDGNAMGWYRKAPGKERELLASITSDSSTNYADSVKGRFTISRDNAKYTVYLHMNSLKPQDTAVYYCAADHWIAPRRDYWGQGTQVTVSS”, the “polyreactivity (PSR sort gate)” value was “low polyreactivity”.
As for “QVQLEESGAGVVQAGGSLRLSCAASGRTFQYNAMGWYRPAPGTERELVAAISSSGGSTYYADSVKGRFTISRDNAKNTVYFQMNSLNPEDTAVYYCNAYSQSWNFYGVGDYWGQGTQVTVSS”, the “polyreactivity (PSR sort gate)” value is “low polyreactivity”.
Consider “QVQLEESGGALVQAGGSLRLSCAASGFIFTLYAMGWYRQAPGKEREFVAAISWSDGSTTYADSVKGRFTISRDNAKNTVYLQMNSLNPEDTAVYYCAAVTSSYIRGLVYHFYYWGQGTQVTVSS”, for which the “polyreactivity (PSR sort gate)” value is “low polyreactivity”.
To “QVQLEESGGALVQAGGSLRLSCAASGNTFGPKAMGWYRQAPGKERELVASINIGGRTNYADSVKGRFTISRDNAKNSVYLQLKSLKPEDTAVYYCNAGSGVQVVWYNAYREYEYWGQGTQVTVSS” belongs “low polyreactivity”.
The same measure for “QVQLEESGGCLDQAAGSLRLTCADSGFIFLPNAMGWYRQAPGKERELVADITYDGGTTYYADSVKGRFTISRDNAKNTVYLQKNSLKPEDTAVYYCNAETYEFHRSRGDYDYWGQGTQVTVSS”: “low polyreactivity”; for “QVQLEESGGGIVQAGGSLRLSCAASGRTFGANAMGWYRQAPGKERELVAAISSSDDSTYYADSVKGRFTISRDNAKNTVYLQMNSLKPEDTAVYYCAAEDVYPQLDYWGQGTQVTVSS”: “low polyreactivity”; for “QVQLEESGGGLDQAGGILRLSFAASGSTIGGYAMGWYSQATGNERELVAAITRSGGRTYYADSVKGRFTISRDNGKNTVYLQMNSLKPEDTAVYYCATLVTNGRYDSWGQGTQVTVSS”: “high polyreactivity”.
For the sequence “QVQLEESGGGLDQAGGSLRLSCAASARTFDGYAMGWYRQAPGKERELVAAISSGDSTYYADSVKGRFTISRDKAKNTVYLQMNSLKPEDTAVYYCAASFYYSSYGYWGQGTQVTVSS”, the “polyreactivity (PSR sort gate)” value is listed as “low polyreactivity”.
The same measure for “QVQLEESGGGLDQAGGSLRLTCAASGSTFLFYAMGWYRQAPGKESELVAAIRWSGGSTYADSVKGRFTISRDNAKYTVYLPMNSLKPEDTAVYYCATTYRPTFRRHYKYWGQGTQVTVSS”: “low polyreactivity”.
On to “QVQLEESGGGLFQAGGSLRLSCAASGSTFYAYAMGWYRQAPGKERELVAAISSDGTNYADSVKGRFTISRDNAKNTVYLQMNSLKPEDTAVYYCAADMLLYSSQDNDYWGQGTLVTVSS”, for which the “polyreactivity (PSR sort gate)” value is given as “low polyreactivity”.
The same measure for “QVQLEESGGGLFQAGGSLRLSCAASVSSYRSYARGWYRTATGKERELVAAISVSGGSTYYADSVKGRFTISRDNAKNTVFLQMNSLKPEDTAVYYCAASYVPSYAPGRYYYWGQGTQVTVSS”: “high polyreactivity”.
To “QVQLEESGGGLLQAGGSLRLSCAASGRTLGGYTMGWYRPAPGKERELVSAITTGGSTNYADSVKGRFTISRDNAKNTVYLQMNSLKPEDTAVYFCATELVFDKRYWYDYWGQGSQVTVSS” belongs “low polyreactivity”.

(Values after the nanobody polyreactivity screen of Harvey et al. (2022).)
